EP4703383A1

What was measured:
Experiment in all cases: ELISA, coated antigen 1 ug/mL, antibody 10 ug/mL
[1] = target: extracellular segment of human PRLR protein with avi-(his)6 tag (hPRLR-ECD-avi-his) (human) (UniProt P16471)
[2] = target: murine PRLR extracellular domain (mouse) (UniProt Q08501)
[3] = target: extracellular segment of the PRLR protein of cynomolgus monkey with avi-(his)6 tag (cynoPRLR-ECD-avi-his) (cynomolgus monkey)
Sequence of extracellular segment of the PRLR protein of cynomolgus monkey with avi-(his)6 tag (cynoPRLR-ECD-avi-his) (cynomolgus monkey) (chain, as listed by the source limits assumed): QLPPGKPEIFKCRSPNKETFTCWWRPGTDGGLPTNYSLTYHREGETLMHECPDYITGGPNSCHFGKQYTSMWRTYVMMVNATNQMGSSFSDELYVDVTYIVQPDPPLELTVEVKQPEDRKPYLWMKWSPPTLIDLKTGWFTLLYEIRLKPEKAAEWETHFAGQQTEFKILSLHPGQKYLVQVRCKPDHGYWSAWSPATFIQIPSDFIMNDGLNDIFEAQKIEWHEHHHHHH

Sequence of murine PRLR extracellular domain (mouse) (Q08501 20-229): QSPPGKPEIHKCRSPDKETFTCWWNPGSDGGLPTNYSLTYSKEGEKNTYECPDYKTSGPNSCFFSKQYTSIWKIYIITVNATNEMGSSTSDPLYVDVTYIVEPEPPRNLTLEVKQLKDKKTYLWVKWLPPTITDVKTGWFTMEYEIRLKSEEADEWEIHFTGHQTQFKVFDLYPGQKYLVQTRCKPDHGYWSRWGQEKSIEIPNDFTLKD
Sequence of extracellular segment of human PRLR protein with avi-(his)6 tag (hPRLR-ECD-avi-his) (human) (P16471 other isoform, or with tags, fused parts or gaps): as the sequence (chain, as listed by the source limits assumed) above, with V76I, T110A, M125I, T158I, I207T counted along it

absorbance at 450nm [1] | absorbance at 450nm [2] | absorbance at 450nm [3] | Binder
3.94 | 0.334 | 0.435 | H-PR-B06 (antibody, V domains shown) VH: DVKLVESGGGLVKPGGSLKLACAASGFTFSSYTMSWVRQTPEKRLEWVATISSGGSYTYYPDSVKGRFTISRDNAKNTLYLQLSSLKSEDTAMYYCTRDRYYSTTPDWYFDVWGAGTTVTVSS VL: DIVLTQSPATLSVTPGDSVSLSCRATQIIFNNLHWYQQKSHESPRLLITYTSQSISGIPSRFSGSGSGTDFTLTINSVETEDFGMYFCQQSNTWPRTFGGGTKLEIK
3.12 | 0.223 | – | HP-PR02H02 (antibody, V domains shown) VH: EVMLVESGGGLVKPGGSLKLACAASGFTFSSYTMSWVRQTPEKRLEWVATISSGGSYTYYPDSVKGRFTISRDNAKNTLYLQLSSLKSEDTAMYYCTRDRYYSTTPDWYFDVWGAGTTLTVSS VL: DIVITQSPATLSVTPGDSVSLSCRATQIIFNNLHWYQQKSHESPRLLITYTSQSISGIPSRFSGSGSGTDFTLTINSVETEDFGMYFCQQSNTWPRTFGGGTKLEIK
1.45 | 0.273 | 1.52 | HP-PR01C02 (antibody, V domains shown) VH: DVHLVESGPGLVKPSQSLSLTCTVTGYSITSDYAWNWIRQFPGNKLEWMGYISYSGSTGYSPSLKSRVSITRDTSKNQFFLQLNSVTTEDTATYFCARNNWAFDFWGQGTTLTVSS VL: DIVLTQSPAIMSASPGEKVTMTCSASSSVNYMHWYQQKSGTSPKRWIYDTSKLASGVPARFSGSGSGTSYSLTISSMEAEDAATYYCQQWSSNPLTFGAGTKLELK
0.638 | 0.161 | – | HP-PR01B01 (antibody, V domains shown) VH: EVHLVESGPDLVKPSQSLSLTCTVTGYSITSGYNWHWIRQFPGNKLEWMGYIHYSGSTKYDPSLKSRISFTRDTSRNQFFLQLNSVTTEDRATYYCARSEAGGYSWFAYWGQGTLVTVSA VL: DIVMTQSPAIMSASPGEKVTMACSASSSVNYMHWYQQKSGTSPKRWIYDTSKLASGVPARFSGSGSGTSYSLTISSMEAEDAATYYCQQWSSNPLTFGAGTKLELK
4 | 0.382 | 3.75 | H-PR-B03 (antibody, V domains shown) VH: QVQLKESGPGLVAPSQSLSITCTVSGFSLTGFGVNWFRQPPGRGLEWLGMIWGDGSTDYNSALKSRLSISKDNSKSQVFLKMNSLQTDDTARYYCARVLYYYGGNSFAYWGQGTLVTVSA VL: DVLMTQTPLSLPVSLGDQASISCRSSQSIVHSNGNTYLEWYLQKPGQSPKLLIYKVSSRFSGVPDRFSGSGSGTDFTLKISRVEAEDLGVYYCFQGSHVPYTFGGGTKLEIK
3.91 | 3.44 | 3.65 | HP-PR02E11 (antibody, V domains shown) VH: QVQLQQSGPGLVAPSQSLSITCTVSGFSLTSYGVNWVRQPPGKGLEWLGIIGAGGSTNYNSALMSRLSISKDNSKSQVFLKMNSLQTDDTAMYYCARSLYYYGSSSFAYWGQGTLVTVSA VL: DIVMTQTPLSLPVSLGDQASISCRSSQSIVHSNGNTYLEWYLQKPGQSPKLLIYKVSNRFSGVPDRFSGSGSGTDFTLKISRVEAEDLGVYYCFQGSHVPWTFGGGTKLELK
– | 0.102 | 2.16 | P-PR-C07H (antibody, V domains shown) VH: EVQLQQSGAELVRPGTSVQISCKASGYTFTNNWLAWIKQRPGHGLEWIGDIYPGGVYTNYNEKFKGKATLTADTSSSTAYMQLSSLTSEDSAVYFCYYGDFWSAYWGQGTLVTVSA VL: DIVMTQAAPSVPVTPGESVSISCRSSKSLLHSNGNTYLYWFLQRPGQSPQLLIYRMSNLASGVPDRFSGSGSGTAFTLRISRVEAEDVGVYYCMQHLEYPLTFGAGTKLELK
– | 0.141 | 2.51 | P-PR-B09W (antibody, V domains shown) VH: QVQLQQPGSELVRPGASVKLSCKASGFTFTTFWVHWVKQRPGQGLEWIGNISPGGTSTNYDEKFKSKASLTVDTFSNTAYMQLSSLTSEDSAVYYCIRHSGNYFNAMDYWGQGTSVTVSS VL: DIVMTQAAPSVPVTPGESVSISCRSSKSLLHSNGNTYLYWFLQRPGQSPQLLIYRMSNLASGVPDRFSGSGSGTAFTLRISRVEAEDVGVYYCMQHLEYPLTFGAGTKLELK
– | 0.118 | 2.37 | P-PR-D01H (antibody, V domains shown) VH: QVQLQQPGSELVRPGASVKLSCKASGFTFTTYWVHWVKQRPGQGLEWIGNISPGGGSTNYDEKFKSKASLTVDTFSNTAYMQLGSLTSEDSAVYYCIRHSGNYFNAMDYWGQGTTLTVSS VL: DIVMTQAAPSVPVTPGESVSISCRSSKSLLHSNGNTYLYWFLQRPGQSPQLLIYRMSNLASGVPDRFSGSGSGTAFTLRISRVEAEDVGVYYCMQHLEYPLTFGAGTKLELK
– | 2.52 | 2.51 | P-PR-D06H (antibody, V domains shown) VH: QVQLQQPGSELVRPGASVKLSCKASGFTFTTFWVHWVKQRPGQGLEWIGNISPGSTSTNYNEKFKNKASLTVDTFSNTAYMQLSSLTSEDSAVYYCIRHSGNYFNAMDYWGQGTTLTVSS VL: DIVMTQAAPSVPVTPGESVTISCRSSKSLLHSNGKTYLYWFLQRPGQSPQLLIYWMSNLASGVPDRFSGSGSGTAFTLRISRVEAEDVGVYYCMQHLEYPFTFGVGTKLELK
2.25 | 0.09 | 2.51 | P-PR-G02W (antibody, V domains shown) VH: QVQLQQPGSELVRPGASVKLSCKASGFTFTTYWVHWVKQRPGQGLEWIGNISPGSGSTNYDEKFKSKASLTVDTFSNTAYMQLSSLTSEDSAVYYCIRHSGNYFNAMDYWGQGTTLTVSS VL: DIVMTQAAPSVPVTPGESVSISCRSSKSLLHSNGNTYLYWFLQRPGQSPQLLIYRMSNLASGVPDRFSGSGSGTAFTLRISRVEAEDVGVYYCMQHLEYPLTFGAGTKLELK
2.16 | 0.09 | 2.25 | P-PR-C04W (antibody, V domains shown) VH: QVQLQQPGSELVRPGASVKLSCKASGFTFTTYWVHWVKQRPGQGLEWIGNISPGSGSTNYDEKFKSKASLTVDTFSNTAYMQLSSLTSEDSAVYYCIRHSGNYFNAMDYWGQGTTVTVSS VL: DIVMTQAAPSVPVTPGESVSISCRSSKSLLHSNGNTYLYWFLQRPGQSPQLLIYRMSNLASGVPDRFSGSGSGTAFTLRISRVEAEDVGVYYCMQHLEYPLTFGAGTKLELK
– | 0.115 | 2.3 | P-PR-C02H (antibody, V domains shown) VH: QVQLQQPGSELVRPGASVRLSCKASGFTFTTYWVHWVKQRPGQGLEWIGNISPGSGSTNYDEKFKSKASLTVDTFSNTAYMQLSSLTSEDSAVYYCIRHSGNYFNAMDYWGQGTSVTVSS VL: DIVMTQATPSVPVAPGESVSISCRSSKSLLHTNGYTYLYWFLQRPGQSPQLLIYRMSNLASGVPDRFSGSGSGTAFTLRISRVEAEDVGVYYCMQHLEYPLTFGAGTKLELK
– | 0.094 | 2.25 | P-PR-C08H (antibody, V domains shown) VH: QVQLQQPGSELVRPGASVKLSCKASGFTFTTYWVHWVKQRPGQGLEWIGNISPGSGSTNYDEKFKSKASLTVDTFSNTAYMQLSSLTSEDSAVYYCIRHSGNYFNAMDYWGQGTTVTVSS VL: DIVMTQAAPSVPVTPGESVSISCRSSKSLLHSNGNTYLYWFLQRPGQSPQLLIYRMSNLASGVPDRFSGSGSGTAFTLRISRVEAEDVGVYYCMQHLEYPLTFGAGTKLELK
